Results reported in article PMC9168731.

Experiments:
[1] = target: S. pombe Arp2/3 complex (S. pombe) (UniProt Q9UUJ1)
[2] = target: S. pombe Arp2/3 complex (S. pombe) (UniProt Q9UUJ1); remark: listed apart in the source

UniProt Q9UUJ1, sequence (Q9UUJ1 whole entry, looked up, one chain of several): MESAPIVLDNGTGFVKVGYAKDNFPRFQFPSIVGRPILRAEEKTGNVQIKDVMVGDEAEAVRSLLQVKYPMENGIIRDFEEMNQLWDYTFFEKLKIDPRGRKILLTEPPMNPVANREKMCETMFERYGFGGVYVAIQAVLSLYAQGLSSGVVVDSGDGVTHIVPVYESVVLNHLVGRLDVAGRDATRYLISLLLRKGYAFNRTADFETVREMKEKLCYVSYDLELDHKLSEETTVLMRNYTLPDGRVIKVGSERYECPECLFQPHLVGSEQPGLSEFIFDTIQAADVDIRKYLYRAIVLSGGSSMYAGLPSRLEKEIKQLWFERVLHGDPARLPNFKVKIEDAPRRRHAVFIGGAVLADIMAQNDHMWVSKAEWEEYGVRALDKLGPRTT

maximum polymerization rate, pyrene actin polymerization assay (3 μM 15% pyrene-labeled actin, 50 nM SpArp2/3 complex, 5 μM Dip1); 2.8 nM/s for reactions without Dip1 [1] [nM/s]	activation of Arp2/3 complex, pyrene actin polymerization assay (3 μM 15% pyrene-labeled actin, 50 nM SpArp2/3 complex, 5 μM Dip1) (% reduction compared to WT Dip1) [2]	Substance
8		Dip1(N292K) (from UniProt O74771 1-374) (natural protein)
	> 60	Dip1(R301E) (from UniProt O74771 1-374) (natural protein)
20		Schizosaccharomyces pombe WDS protein Dip1, WT (from UniProt O74771 1-374) (natural protein)
